# Measurements from patent publication US20250154231A1.
# Read-outs that look alike come from different tables or passages of the source.
# Assays:
# Assay in all cases: cell-based or functional assay
# [1] = target: SARS-CoV-2 spike (S) protein, Omicron BA.2 (SARS-CoV-2) (UniProt P0DTC2)
# [2] = target: SARS-CoV-2 spike (S) protein, Omicron BA.2.75 (SARS-CoV-2) (UniProt P0DTC2)
# [3] = target: SARS-CoV-2 spike (S) protein, Omicron BJ.1 (SARS-CoV-2) (UniProt P0DTC2)
# [4] = target: SARS-CoV-2 spike (S) protein, Victoria strain (SARS-CoV-2) (UniProt P0DTC2)
# [5] = target: SARS-CoV-2 spike (S) protein, Omicron BA.2.3.20 (SARS-CoV-2) (UniProt P0DTC2)
# [6] = target: SARS-CoV-2 spike (S) protein, Omicron BA.4/5 (SARS-CoV-2) (UniProt P0DTC2)
# [7] = target: SARS-CoV-2 spike (S) protein, Omicron BA.2.75.2 (SARS-CoV-2) (UniProt P0DTC2)
# [8] = target: SARS-CoV-2 spike (S) protein, Omicron BA.2 (SARS-CoV-2) (UniProt P0DTC2); remark: listed apart in the source
# [9] = target: SARS-CoV-2 spike (S) protein, Omicron BA.4.6 (SARS-CoV-2) (UniProt P0DTC2)
# [10] = target: SARS-CoV-2 spike (S) protein, Omicron BA.2.75 (SARS-CoV-2) (UniProt P0DTC2); remark: listed apart in the source
# [11] = target: SARS-CoV-2 spike (S) protein, Victoria strain (SARS-CoV-2) (UniProt P0DTC2); remark: listed apart in the source
# [12] = target: SARS-CoV-2 spike (S) protein, Omicron BA.4/5 (SARS-CoV-2) (UniProt P0DTC2); remark: listed apart in the source
# [13] = target: SARS-CoV-2 spike (S) protein, Omicron BA.1.1 (SARS-CoV-2) (UniProt P0DTC2)
# [14] = target: SARS-CoV-2 Beta spike (S) protein (SARS-CoV-2) (UniProt P0DTC2)
# [15] = target: SARS-CoV-2 Alpha spike (S) protein (SARS-CoV-2) (UniProt P0DTC2)
# [16] = target: SARS-CoV-2 spike (S) protein, Omicron BA.2 (SARS-CoV-2) (UniProt P0DTC2); remark: listed apart in the source
# [17] = target: SARS-CoV-2 spike (S) protein, Omicron BA.4.6 (SARS-CoV-2) (UniProt P0DTC2); remark: listed apart in the source
# [18] = target: SARS-CoV-2 Omicron BA.1.1 spike (S) protein (SARS-CoV-2) (UniProt P0DTC2)
# [19] = target: SARS-CoV-2 spike (S) protein, Omicron BA.1 (SARS-CoV-2) (UniProt P0DTC2)
# [20] = target: SARS-CoV-2 Gamma spike (S) protein (SARS-CoV-2) (UniProt P0DTC2)
# [21] = target: SARS-CoV-2 Omicron BA.2 spike (S) protein (SARS-CoV-2) (UniProt P0DTC2)
# [22] = target: SARS-CoV-2 Omicron BA.1 spike (S) protein of the live isolate (SARS-CoV-2) (UniProt P0DTC2)
# [23] = target: SARS-CoV-2 Victoria spike (S) protein (SARS-CoV-2) (UniProt P0DTC2)
# [24] = target: SARS-CoV-2 spike (S) protein, Omicron BA.3 (SARS-CoV-2) (UniProt P0DTC2)
# [25] = target: SARS-CoV-2 Delta spike (S) protein (SARS-CoV-2) (UniProt P0DTC2)
# [26] = target: SARS-CoV-2 Omicron BA.3 spike (S) protein (SARS-CoV-2) (UniProt P0DTC2)
# [27] = target: SARS-CoV-2 Beta (B.1.351) spike (S) protein (SARS-CoV-2) (UniProt P0DTC2)
# [28] = target: SARS-CoV-2 Omicron (BA.1) spike (S) protein, live virus isolate (SARS-CoV-2) (UniProt P0DTC2)
# [29] = target: SARS-CoV-2 Omicron BA.1 spike (S) protein, pseudovirus construct (SARS-CoV-2) (UniProt P0DTC2)
# [30] = target: SARS-CoV-2 Omicron BA.3 spike (S) protein, pseudovirus construct (SARS-CoV-2) (UniProt P0DTC2)
# [31] = target: SARS-CoV-2 Gamma (P.1) spike (S) protein (SARS-CoV-2) (UniProt P0DTC2)
# [32] = target: SARS-CoV-2 Alpha (B.1.1.7) spike (S) protein (SARS-CoV-2) (UniProt P0DTC2)
# [33] = target: SARS-CoV-2 Omicron BA.1.1 spike (S) protein, pseudovirus construct (SARS-CoV-2) (UniProt P0DTC2)
# [34] = target: SARS-CoV-2 Omicron BA.2 spike (S) protein, pseudovirus construct (SARS-CoV-2) (UniProt P0DTC2)
# [35] = target: SARS-CoV-2 Omicron BA.1 spike (S) protein of the pseudovirus (SARS-CoV-2) (UniProt P0DTC2)
# [36] = target: SARS-CoV-2 Omicron BA.4/5 spike (S) protein (SARS-CoV-2) (UniProt P0DTC2)
# [37] = target: SARS-CoV-2 spike (S) protein, Omicron BA.2.75 (SARS-CoV-2) (UniProt P0DTC2); remark: listed apart in the source
# [38] = target: SARS-CoV-2 spike (S) protein, Omicron BA.2 (SARS-CoV-2) (UniProt P0DTC2); remark: listed apart in the source
# [39] = target: SARS-CoV-2 spike (S) protein, Omicron BA.2.75 (SARS-CoV-2) (UniProt P0DTC2); remark: listed apart in the source
# Sequence of Omi-29 (antibody) (VH): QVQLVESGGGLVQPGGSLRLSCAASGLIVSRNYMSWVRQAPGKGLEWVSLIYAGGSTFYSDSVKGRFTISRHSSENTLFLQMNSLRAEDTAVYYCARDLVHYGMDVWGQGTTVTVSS
# Sequence of Omi-29 (antibody) (VL): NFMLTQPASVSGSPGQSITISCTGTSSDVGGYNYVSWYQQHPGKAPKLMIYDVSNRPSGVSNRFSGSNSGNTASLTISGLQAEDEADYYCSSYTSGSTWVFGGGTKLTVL
# Sequence of AZD8895 (antibody) (VH): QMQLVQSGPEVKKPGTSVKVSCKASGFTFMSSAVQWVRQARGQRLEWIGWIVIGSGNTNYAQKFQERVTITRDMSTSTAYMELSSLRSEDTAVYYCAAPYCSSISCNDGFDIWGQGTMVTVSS
# Sequence of AZD8895 (antibody) (VL): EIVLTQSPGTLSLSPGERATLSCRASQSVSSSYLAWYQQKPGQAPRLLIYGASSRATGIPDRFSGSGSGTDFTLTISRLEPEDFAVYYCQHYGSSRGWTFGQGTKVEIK
# Sequence of Omi-32 (antibody) (VH): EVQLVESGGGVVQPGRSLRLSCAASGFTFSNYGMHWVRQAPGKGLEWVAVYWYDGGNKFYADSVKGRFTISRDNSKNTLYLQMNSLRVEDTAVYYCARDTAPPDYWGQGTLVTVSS
# Sequence of Omi-32 (antibody) (VL): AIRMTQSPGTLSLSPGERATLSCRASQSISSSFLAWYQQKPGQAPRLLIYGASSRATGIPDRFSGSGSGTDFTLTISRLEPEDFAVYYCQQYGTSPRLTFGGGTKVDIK
substance,measurement,setting,value
AZD8895 (antibody),pseudovirus neutralisation IC50,[1],1.99 µg/mL
same,pseudovirus neutralisation IC50,[2],0.008 µg/mL
same,"IC50, pseudoviral neutralization",[3],0.114 µg/mL
same,"IC50, pseudoviral neutralization",[4],0.001 µg/mL
same,"IC50, pseudoviral neutralization",[5],0.007 µg/mL
same,"IC50, pseudoviral neutralization",[6],> 10 µg/mL
same,"IC50, pseudoviral neutralization",[7],> 10 µg/mL
same,"IC50, pseudoviral neutralization",[8],1.33 µg/mL
same,"IC50, pseudoviral neutralization",[9],> 10 µg/mL
same,"IC50, pseudoviral neutralization",[10],0.008 µg/mL
same,"IC50, pseudoviral neutralization",[11],0.001 µg/mL
same,pseudovirus neutralisation IC50,[11],0.001 µg/mL
same,"IC50, pseudoviral neutralization",[12],> 10 µg/mL
same,pseudovirus neutralisation IC50,[12],> 10 µg/mL
same,"IC50, pseudoviral neutralization",[13],0.1 µg/mL
same,pseudovirus neutralisation IC50,[13],0.1 µg/mL
same,"IC50, authentic virus neutralization",[14],0.046 µg/mL
same,"IC50, authentic virus neutralization",[15],0.011 µg/mL
same,"IC50, pseudoviral neutralization",[16],1.33 µg/mL
same,pseudovirus neutralisation IC50,[16],1.33 µg/mL
same,"IC50, pseudoviral neutralization",[17],> 10 µg/mL
same,"IC50, authentic virus neutralization",[18],6.08 µg/mL
same,"IC50, pseudoviral neutralization",[19],0.246 µg/mL
same,pseudovirus neutralisation IC50,[19],0.246 µg/mL
same,"IC50, authentic virus neutralization",[20],0.046 µg/mL
same,"IC50, authentic virus neutralization",[21],7.7 µg/mL
same,"IC50, authentic virus neutralization",[22],1.15 µg/mL
same,"IC50, authentic virus neutralization",[23],0.005 µg/mL
same,"IC50, pseudoviral neutralization",[24],> 10 µg/mL
same,pseudovirus neutralisation IC50,[24],> 10 µg/mL
same,"IC50, authentic virus neutralization",[25],0.003 µg/mL
Omi-32 (antibody),"IC50, pseudoviral neutralization",[3],> 10 µg/mL
same,"IC50, pseudoviral neutralization",[4],0.01 µg/mL
same,"IC50, pseudoviral neutralization",[5],> 10 µg/mL
same,"IC50, pseudoviral neutralization",[6],0.035 µg/mL
same,"IC50, pseudoviral neutralization",[7],> 10 µg/mL
same,"IC50, pseudoviral neutralization",[8],2.68 µg/mL
same,"IC50, pseudoviral neutralization",[9],> 10 µg/mL
same,"IC50, pseudoviral neutralization",[10],0.354 µg/mL
same,"IC50, pseudovirus neutralization",[26],1.02 µg/mL
same,Authentic virus-IC50,[27],0.46 µg/mL
same,pseudovirus neutralisation IC50,[11],0.01 µg/mL
same,Authentic virus-IC50,[28],0.024 µg/mL
same,pseudovirus neutralisation IC50,[12],0.035 µg/mL
same,Pseudovirus - IC50,[29],0.017 µg/mL
same,pseudovirus neutralisation IC50,[13],> 10 µg/mL
same,Pseudovirus - IC50,[30],1.02 µg/mL
same,Authentic virus-IC50,[31],0.43 µg/mL
same,"IC50, authentic virus neutralization",[14],0.46 µg/mL
same,Authentic virus-IC50,[32],0.102 µg/mL
same,"IC50, authentic virus neutralization",[15],0.102 µg/mL
same,pseudovirus neutralisation IC50,[16],2.68 µg/mL
same,Pseudovirus - IC50,[33],> 10 µg/mL
same,"IC50, authentic virus neutralization",[18],4.64 µg/mL
same,"IC50, pseudovirus neutralization",[18],> 10 µg/mL
same,pseudovirus neutralisation IC50,[19],0.017 µg/mL
same,"IC50, authentic virus neutralization",[20],0.43 µg/mL
same,"IC50, authentic virus neutralization",[21],1.9 µg/mL
same,"IC50, pseudovirus neutralization",[21],2.68 µg/mL
same,"IC50, authentic virus neutralization",[22],0.024 µg/mL
same,Pseudovirus - IC50,[34],2.68 µg/mL
same,"IC50, pseudovirus neutralization",[35],0.017 µg/mL
same,Authentic virus-IC50,[23],0.032 µg/mL
same,"IC50, authentic virus neutralization",[23],0.032 µg/mL
same,"IC50, pseudovirus neutralization",[23],0.01 µg/mL
same,Pseudovirus - IC50,[23],0.01 µg/mL
same,"IC50, pseudovirus neutralization",[36],0.035 µg/mL
same,pseudovirus neutralisation IC50,[24],1.02 µg/mL
same,pseudovirus neutralisation IC50,[37],0.354 µg/mL
same,Authentic virus-IC50,[25],0.012 µg/mL
same,"IC50, authentic virus neutralization",[25],0.012 µg/mL
same,pseudovirus neutralisation IC50,[38],2.61 µg/mL
same,pseudovirus neutralisation IC50,[39],0.354 µg/mL
Omi-29 (antibody),"IC50, pseudoviral neutralization",[3],0.025 µg/mL
same,"IC50, pseudoviral neutralization",[4],0.014 µg/mL
same,"IC50, pseudoviral neutralization",[5],> 10 µg/mL
same,"IC50, pseudoviral neutralization",[6],0.396 µg/mL
same,"IC50, pseudoviral neutralization",[7],> 10 µg/mL
same,"IC50, pseudoviral neutralization",[8],0.056 µg/mL
same,"IC50, pseudoviral neutralization",[9],0.17 µg/mL
same,"IC50, pseudoviral neutralization",[10],> 10 µg/mL
same,"IC50, pseudovirus neutralization",[26],0.064 µg/mL
same,Authentic virus-IC50,[27],0.048 µg/mL
same,pseudovirus neutralisation IC50,[11],0.014 µg/mL
same,Authentic virus-IC50,[28],0.036 µg/mL
same,pseudovirus neutralisation IC50,[12],0.396 µg/mL
same,Pseudovirus - IC50,[29],0.017 µg/mL
same,pseudovirus neutralisation IC50,[13],0.016 µg/mL
same,Pseudovirus - IC50,[30],0.064 µg/mL
same,Authentic virus-IC50,[31],0.04 µg/mL
same,"IC50, authentic virus neutralization",[14],0.048 µg/mL
same,Authentic virus-IC50,[32],0.066 µg/mL
same,"IC50, authentic virus neutralization",[15],0.066 µg/mL
same,pseudovirus neutralisation IC50,[16],0.056 µg/mL
same,Pseudovirus - IC50,[33],0.016 µg/mL
same,"IC50, authentic virus neutralization",[18],0.052 µg/mL
same,"IC50, pseudovirus neutralization",[18],0.016 µg/mL
same,pseudovirus neutralisation IC50,[19],0.017 µg/mL
same,"IC50, authentic virus neutralization",[20],0.04 µg/mL
same,"IC50, authentic virus neutralization",[21],0.192 µg/mL
same,"IC50, pseudovirus neutralization",[21],0.056 µg/mL
same,"IC50, authentic virus neutralization",[22],0.036 µg/mL
same,Pseudovirus - IC50,[34],0.056 µg/mL
same,"IC50, pseudovirus neutralization",[35],0.017 µg/mL
same,Authentic virus-IC50,[23],0.044 µg/mL
same,"IC50, authentic virus neutralization",[23],0.044 µg/mL
same,"IC50, pseudovirus neutralization",[23],0.014 µg/mL
same,Pseudovirus - IC50,[23],0.014 µg/mL
same,"IC50, pseudovirus neutralization",[36],0.396 µg/mL
same,pseudovirus neutralisation IC50,[24],0.064 µg/mL
same,pseudovirus neutralisation IC50,[37],> 10 µg/mL
same,Authentic virus-IC50,[25],0.029 µg/mL
same,"IC50, authentic virus neutralization",[25],0.029 µg/mL
same,pseudovirus neutralisation IC50,[38],0.056 µg/mL
same,pseudovirus neutralisation IC50,[39],> 10 µg/mL
